These results are taken from patent publication US20130078247A1.

In the experiment the target is cynomolgus Ang2 (cynomolgus). As to the kind of experiment: competition ELISA: cAng2 binding to cTie2.

B1: 00050 (VHH)
VHH: EVQLVESGGGLVQPGGSLRLSCAASGFTFDDYALGWFRQAPGKEREGVSCIRCSDGSTYYADSVKGRFTISSDNSKNTVYLQMNSLRPEDTAVYYCAASIVPRSKLEPYEYDAWGQGTLVTVSS
In turn, B1 yielded an IC50 (read off the curve) of 10 nM.
